# In US20230235013A1 (MABSOLVE, published 2023):
# Molecular target: T1, Histidine-tagged recombinant human FcγRI (CD64) (human, UniProt P12314 16-288)
# T1 construct: bought; also called Sino Biological Cat. No. 12056-H08H
# Assay: SPR, culture supernatant, captured His-FcγRI;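 also: biacore T200 SPR at 25 °C, anti-His capture, supernatants of HEK293 cells expressing IgG1 Fc variants injected 1 min, reference-subtracted response read 55 s after injection start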
row,Binder,Mean binding response
1,"anti-CD20 human IgG1 L234Q/L235N/G236R (antibody, copies: 2 + 2) heavy: QVQLQQPGAELVKPGASVKMSCKASGYTFTSYNMHWVKQTPGRGLEWIGAIYPGNGDTSYNQKFKGKATLTADKSSSTAYMQLSSLTSEDSAVYYCARSTYYGGDWYFNVWGAGTTVTVSSASTKGPSVFPLAPSSKSTSGGTAALGCLVKDYFPEPVTVSWNSGALTSGVHTFPAVLQSSGLYSLSSVVTVPSSSLGTQTYICNVNHKPSNTKVDKKVEPKSCDKTHTCPPCPAPEQNRGPSVFLFPPKPKDTLMISRTPEVTCVVVDVSHEDPEVKFNWYVDGVEVHNAKTKPREEQYNSTYRVVSVLTVLHQDWLNGKEYKCKVSNKALPAPIEKTISKAKGQPREPQVYTLPPSRDELTKNQVSLTCLVKGFYPSDIAVEWESNGQPENNYKTTPPVLDSDGSFFLYSKLTVDKSRWQQGNVFSCSVMHEALHNHYTQKSLSLSPGK light: QIVLSQSPAILSASPGEKVTMTCRASSSVSYIHWFQQKPGSSPKPWIYATSNLASGVPVRFSGSGSGTSYSLTISRVEAEDAATYYCQQWTSNPPTFGGGTKLEIKRTVAAPSVFIFPPSDEQLKSGTASVVCLLNNFYPREAKVQWKVDNALQSGNSQESVTEQDSKDSTYSLSSTLTLSKADYEKHKVYACEVTHQGLSSPVTKSFNRGEC",26.8 RU
2,"anti-CD20 human IgG1 L234R/G236R (antibody, also called 2-41; copies: 2 + 2) heavy: not shown light: QIVLSQSPAILSASPGEKVTMTCRASSSVSYIHWFQQKPGSSPKPWIYATSNLASGVPVRFSGSGSGTSYSLTISRVEAEDAATYYCQQWTSNPPTFGGGTKLEIKRTVAAPSVFIFPPSDEQLKSGTASVVCLLNNFYPREAKVQWKVDNALQSGNSQESVTEQDSKDSTYSLSSTLTLSKADYEKHKVYACEVTHQGLSSPVTKSFNRGEC",21.1 RU
3,"anti-CD20 human IgG1 L234R/L235A/G236R (antibody, copies: 2 + 2) heavy: not shown light: QIVLSQSPAILSASPGEKVTMTCRASSSVSYIHWFQQKPGSSPKPWIYATSNLASGVPVRFSGSGSGTSYSLTISRVEAEDAATYYCQQWTSNPPTFGGGTKLEIKRTVAAPSVFIFPPSDEQLKSGTASVVCLLNNFYPREAKVQWKVDNALQSGNSQESVTEQDSKDSTYSLSSTLTLSKADYEKHKVYACEVTHQGLSSPVTKSFNRGEC",28.1 RU
4,"anti-CD20 human IgG1 L234R/L235E/G236R (antibody, also called 2-37; copies: 2 + 2) heavy: QVQLQQPGAELVKPGASVKMSCKASGYTFTSYNMHWVKQTPGRGLEWIGAIYPGNGDTSYNQKFKGKATLTADKSSSTAYMQLSSLTSEDSAVYYCARSTYYGGDWYFNVWGAGTTVTVSSASTKGPSVFPLAPSSKSTSGGTAALGCLVKDYFPEPVTVSWNSGALTSGVHTFPAVLQSSGLYSLSSVVTVPSSSLGTQTYICNVNHKPSNTKVDKKVEPKSCDKTHTCPPCPAPERERGPSVFLFPPKPKDTLMISRTPEVTCVVVDVSHEDPEVKFNWYVDGVEVHNAKTKPREEQYNSTYRVVSVLTVLHQDWLNGKEYKCKVSNKALPAPIEKTISKAKGQPREPQVYTLPPSRDELTKNQVSLTCLVKGFYPSDIAVEWESNGQPENNYKTTPPVLDSDGSFFLYSKLTVDKSRWQQGNVFSCSVMHEALHNHYTQKSLSLSPGK light: QIVLSQSPAILSASPGEKVTMTCRASSSVSYIHWFQQKPGSSPKPWIYATSNLASGVPVRFSGSGSGTSYSLTISRVEAEDAATYYCQQWTSNPPTFGGGTKLEIKRTVAAPSVFIFPPSDEQLKSGTASVVCLLNNFYPREAKVQWKVDNALQSGNSQESVTEQDSKDSTYSLSSTLTLSKADYEKHKVYACEVTHQGLSSPVTKSFNRGEC",16.7 RU
5,"anti-CD20 human IgG1 L234Q/L235Q/G236R (antibody, also called 2-31; copies: 2 + 2) heavy: QVQLQQPGAELVKPGASVKMSCKASGYTFTSYNMHWVKQTPGRGLEWIGAIYPGNGDTSYNQKFKGKATLTADKSSSTAYMQLSSLTSEDSAVYYCARSTYYGGDWYFNVWGAGTTVTVSSASTKGPSVFPLAPSSKSTSGGTAALGCLVKDYFPEPVTVSWNSGALTSGVHTFPAVLQSSGLYSLSSVVTVPSSSLGTQTYICNVNHKPSNTKVDKKVEPKSCDKTHTCPPCPAPEQQRGPSVFLFPPKPKDTLMISRTPEVTCVVVDVSHEDPEVKFNWYVDGVEVHNAKTKPREEQYNSTYRVVSVLTVLHQDWLNGKEYKCKVSNKALPAPIEKTISKAKGQPREPQVYTLPPSRDELTKNQVSLTCLVKGFYPSDIAVEWESNGQPENNYKTTPPVLDSDGSFFLYSKLTVDKSRWQQGNVFSCSVMHEALHNHYTQKSLSLSPGK light: QIVLSQSPAILSASPGEKVTMTCRASSSVSYIHWFQQKPGSSPKPWIYATSNLASGVPVRFSGSGSGTSYSLTISRVEAEDAATYYCQQWTSNPPTFGGGTKLEIKRTVAAPSVFIFPPSDEQLKSGTASVVCLLNNFYPREAKVQWKVDNALQSGNSQESVTEQDSKDSTYSLSSTLTLSKADYEKHKVYACEVTHQGLSSPVTKSFNRGEC",16.8 RU
6,"anti-CD20 human IgG1 L234Q/L235V/G236R (antibody, copies: 2 + 2) heavy: QVQLQQPGAELVKPGASVKMSCKASGYTFTSYNMHWVKQTPGRGLEWIGAIYPGNGDTSYNQKFKGKATLTADKSSSTAYMQLSSLTSEDSAVYYCARSTYYGGDWYFNVWGAGTTVTVSSASTKGPSVFPLAPSSKSTSGGTAALGCLVKDYFPEPVTVSWNSGALTSGVHTFPAVLQSSGLYSLSSVVTVPSSSLGTQTYICNVNHKPSNTKVDKKVEPKSCDKTHTCPPCPAPEQVRGPSVFLFPPKPKDTLMISRTPEVTCVVVDVSHEDPEVKFNWYVDGVEVHNAKTKPREEQYNSTYRVVSVLTVLHQDWLNGKEYKCKVSNKALPAPIEKTISKAKGQPREPQVYTLPPSRDELTKNQVSLTCLVKGFYPSDIAVEWESNGQPENNYKTTPPVLDSDGSFFLYSKLTVDKSRWQQGNVFSCSVMHEALHNHYTQKSLSLSPGK light: QIVLSQSPAILSASPGEKVTMTCRASSSVSYIHWFQQKPGSSPKPWIYATSNLASGVPVRFSGSGSGTSYSLTISRVEAEDAATYYCQQWTSNPPTFGGGTKLEIKRTVAAPSVFIFPPSDEQLKSGTASVVCLLNNFYPREAKVQWKVDNALQSGNSQESVTEQDSKDSTYSLSSTLTLSKADYEKHKVYACEVTHQGLSSPVTKSFNRGEC",20.9 RU
7,"anti-CD20 human IgG1 L234R/L235G/G236R (antibody, copies: 2 + 2) heavy: QVQLQQPGAELVKPGASVKMSCKASGYTFTSYNMHWVKQTPGRGLEWIGAIYPGNGDTSYNQKFKGKATLTADKSSSTAYMQLSSLTSEDSAVYYCARSTYYGGDWYFNVWGAGTTVTVSSASTKGPSVFPLAPSSKSTSGGTAALGCLVKDYFPEPVTVSWNSGALTSGVHTFPAVLQSSGLYSLSSVVTVPSSSLGTQTYICNVNHKPSNTKVDKKVEPKSCDKTHTCPPCPAPERGRGPSVFLFPPKPKDTLMISRTPEVTCVVVDVSHEDPEVKFNWYVDGVEVHNAKTKPREEQYNSTYRVVSVLTVLHQDWLNGKEYKCKVSNKALPAPIEKTISKAKGQPREPQVYTLPPSRDELTKNQVSLTCLVKGFYPSDIAVEWESNGQPENNYKTTPPVLDSDGSFFLYSKLTVDKSRWQQGNVFSCSVMHEALHNHYTQKSLSLSPGK light: QIVLSQSPAILSASPGEKVTMTCRASSSVSYIHWFQQKPGSSPKPWIYATSNLASGVPVRFSGSGSGTSYSLTISRVEAEDAATYYCQQWTSNPPTFGGGTKLEIKRTVAAPSVFIFPPSDEQLKSGTASVVCLLNNFYPREAKVQWKVDNALQSGNSQESVTEQDSKDSTYSLSSTLTLSKADYEKHKVYACEVTHQGLSSPVTKSFNRGEC",31.9 RU

# The next lines start with the values.
row,Mean binding response,Binder
1,10.8 RU,"anti-CD20 human IgG1 L234R/L235N/G236R (antibody, copies: 2 + 2) heavy: QVQLQQPGAELVKPGASVKMSCKASGYTFTSYNMHWVKQTPGRGLEWIGAIYPGNGDTSYNQKFKGKATLTADKSSSTAYMQLSSLTSEDSAVYYCARSTYYGGDWYFNVWGAGTTVTVSSASTKGPSVFPLAPSSKSTSGGTAALGCLVKDYFPEPVTVSWNSGALTSGVHTFPAVLQSSGLYSLSSVVTVPSSSLGTQTYICNVNHKPSNTKVDKKVEPKSCDKTHTCPPCPAPERNRGPSVFLFPPKPKDTLMISRTPEVTCVVVDVSHEDPEVKFNWYVDGVEVHNAKTKPREEQYNSTYRVVSVLTVLHQDWLNGKEYKCKVSNKALPAPIEKTISKAKGQPREPQVYTLPPSRDELTKNQVSLTCLVKGFYPSDIAVEWESNGQPENNYKTTPPVLDSDGSFFLYSKLTVDKSRWQQGNVFSCSVMHEALHNHYTQKSLSLSPGK light: QIVLSQSPAILSASPGEKVTMTCRASSSVSYIHWFQQKPGSSPKPWIYATSNLASGVPVRFSGSGSGTSYSLTISRVEAEDAATYYCQQWTSNPPTFGGGTKLEIKRTVAAPSVFIFPPSDEQLKSGTASVVCLLNNFYPREAKVQWKVDNALQSGNSQESVTEQDSKDSTYSLSSTLTLSKADYEKHKVYACEVTHQGLSSPVTKSFNRGEC"
2,10.1 RU,"anti-CD20 human IgG1 L234R/L235Q/G236R (antibody, also called 2-42; copies: 2 + 2) heavy: QVQLQQPGAELVKPGASVKMSCKASGYTFTSYNMHWVKQTPGRGLEWIGAIYPGNGDTSYNQKFKGKATLTADKSSSTAYMQLSSLTSEDSAVYYCARSTYYGGDWYFNVWGAGTTVTVSSASTKGPSVFPLAPSSKSTSGGTAALGCLVKDYFPEPVTVSWNSGALTSGVHTFPAVLQSSGLYSLSSVVTVPSSSLGTQTYICNVNHKPSNTKVDKKVEPKSCDKTHTCPPCPAPERQRGPSVFLFPPKPKDTLMISRTPEVTCVVVDVSHEDPEVKFNWYVDGVEVHNAKTKPREEQYNSTYRVVSVLTVLHQDWLNGKEYKCKVSNKALPAPIEKTISKAKGQPREPQVYTLPPSRDELTKNQVSLTCLVKGFYPSDIAVEWESNGQPENNYKTTPPVLDSDGSFFLYSKLTVDKSRWQQGNVFSCSVMHEALHNHYTQKSLSLSPGK light: QIVLSQSPAILSASPGEKVTMTCRASSSVSYIHWFQQKPGSSPKPWIYATSNLASGVPVRFSGSGSGTSYSLTISRVEAEDAATYYCQQWTSNPPTFGGGTKLEIKRTVAAPSVFIFPPSDEQLKSGTASVVCLLNNFYPREAKVQWKVDNALQSGNSQESVTEQDSKDSTYSLSSTLTLSKADYEKHKVYACEVTHQGLSSPVTKSFNRGEC"
3,34 RU,"anti-CD20 human IgG1 L234R/L235S/G236R (antibody, copies: 2 + 2) heavy: QVQLQQPGAELVKPGASVKMSCKASGYTFTSYNMHWVKQTPGRGLEWIGAIYPGNGDTSYNQKFKGKATLTADKSSSTAYMQLSSLTSEDSAVYYCARSTYYGGDWYFNVWGAGTTVTVSSASTKGPSVFPLAPSSKSTSGGTAALGCLVKDYFPEPVTVSWNSGALTSGVHTFPAVLQSSGLYSLSSVVTVPSSSLGTQTYICNVNHKPSNTKVDKKVEPKSCDKTHTCPPCPAPERSRGPSVFLFPPKPKDTLMISRTPEVTCVVVDVSHEDPEVKFNWYVDGVEVHNAKTKPREEQYNSTYRVVSVLTVLHQDWLNGKEYKCKVSNKALPAPIEKTISKAKGQPREPQVYTLPPSRDELTKNQVSLTCLVKGFYPSDIAVEWESNGQPENNYKTTPPVLDSDGSFFLYSKLTVDKSRWQQGNVFSCSVMHEALHNHYTQKSLSLSPGK light: QIVLSQSPAILSASPGEKVTMTCRASSSVSYIHWFQQKPGSSPKPWIYATSNLASGVPVRFSGSGSGTSYSLTISRVEAEDAATYYCQQWTSNPPTFGGGTKLEIKRTVAAPSVFIFPPSDEQLKSGTASVVCLLNNFYPREAKVQWKVDNALQSGNSQESVTEQDSKDSTYSLSSTLTLSKADYEKHKVYACEVTHQGLSSPVTKSFNRGEC"
